Values quoted from earlier work as cited in publication PMC2775921.
Where two headings read alike, the source gives them in different places.

Legend:
IL-2 (Homo sapiens) [1] = target: IL-2 (Homo sapiens) (UniProt P60568)
IL-2 (Homo sapiens) [2] = target: IL-2 (Homo sapiens) (UniProt P60568); remark: listed apart in the source

Chain of UniProt P60568 (P60568 21-153): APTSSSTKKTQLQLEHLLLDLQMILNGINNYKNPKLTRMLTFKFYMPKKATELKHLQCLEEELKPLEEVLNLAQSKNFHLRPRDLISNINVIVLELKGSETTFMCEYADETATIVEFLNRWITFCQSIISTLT

## CD25 (membrane α-chain) (from UniProt P01589)
IL-2 (Homo sapiens) [1]
  Kd: 10 nM

## soluble CD25 (from UniProt P01589)
IL-2 (Homo sapiens) [2]
  Kd: 30 nM
